Assay [1] addresses TALK-1 T3-FLAG (human) (UniProt Q96T55).
The target in assay [2] is TALK-1 T3 A277E (rs1535500)-FLAG (human) (UniProt Q96T55).
Assay [3] has as its target TALK-1 T3-FLAG (human) (UniProt Q96T55). This is another data set of the same source.

On to “iOPN-V5 (from UniProt P10451-1 17-314) (natural protein)”, for which, in assay [1], the whole-cell K2P currents of T-REx cells with induced TALK-1 T3, increase with iOPN compared to the PKM2 control, at -60, -30, 0, 30 and 60 mV came to 19.6 pA/pF. The whole-cell K2P currents of T-REx cells with induced TALK-1 T3 A277E, increase with iOPN compared to the PKM2 control, at -60, -30, 0, 30 and 60 mV in assay [2] stood at 18.7 pA/pF. In assay [3], this substance displayed a change of resting membrane potential (ΔVm), TALK-1 T3 with iOPN against TALK-1 T3 with PKM2, perforated patch of -7.7 mV and a resting membrane potential (Vm) of T-REx cells expressing TALK-1 T3 with iOPN, perforated patch of -80.2 mV.
